Experimental data published in paper PMC2790002.

Substrate: CCCC(=O)SCC[N+](C)(C)C
Assay: purified protein
Format: biochemical, Homo sapiens
Details: 24 °C, 317 pM enzyme, 0.1 mM DTNB, 0.005-3 mM substrate

B1: human butyrylcholinesterase (Homo sapiens) (protein)
chain: EDDIIIATKNGKVRGMNLTVFGGTVTAFLGIPYAQPPLGRLRFKKPQSLTKWSDIWNATKYANSCCQNIDQSFPGFHGSEMWNPNTDLSEDCLYLNVWIPAPKPKNATVLIWIYGGGFQTGTSSLHVYDGKFLARVERVIVVSMNYRVGALGFLALPGNPEAPGNMGLFDQQLALQWVQKNIAAFGGNPKSVTLFGESAGAASVSLHLLSPGSHSLFTRAILQSGSFNAPWAVTSLYEARNRTLNLAKLTGCSRENETEIIKCLRNKDPQEILLNEAFVVPYGTPLSVNFGPTVDGDFLTDMPDILLELGQFKKTQILVGVNKDEGTAFLVYGAPGFSKDNNSIITRKEFQEGLKIFFPGVSEFGKESILFHYTDWVDDQRPENYREALGDVVGDYNFICPALEFTKKFSEWGNNAFFYYFEHRSSKLPWPEWMGVMHGYEIEFVFGLPLERRDNYTKAEEILSRSIVKRWANFAKYGNPNETQNNSTSWPVFKSTEQKYLTLNTESTRIMTKLRAQQCRFWTSFFPKVLEMTGNIDEAEWEWKAGFHRWNNYMMDWKNQFNDYTSKKESCVGL
Km: 100 µM
